Test results taken from patent EP2594588A1.

Molecular target: ADM (agonist of the ADM-Bioassay, human or mouse not told)
Experiment: cell-based or functional assay

Non specific mouse IgG (antibody)
Maximal inhibition of ADM bioactivity (ADM-Bioassay) (%): 0%
